From patent US20230051701A1 (Bristol-Myers Squibb, published 2023) come the findings set out here.

Where “and” joins values, the source holds several entries; their conditions need not be identical. Equal entries are not always repeated.

In general, EC50 refers to the concentration that produces a half-maximal response. The low end stands for a more potent agent, the high end for a less potent agent.

This assay deals with T1, human CD73 on cells (Calu6, NCI-H292, SK-MEL-24, human tumor cell lines, human B and T cells) (human, UniProt P21589 27-549).
T1 construct: Endogenous protein; also called endogenous CD73; cellular CD73
T1 sequence: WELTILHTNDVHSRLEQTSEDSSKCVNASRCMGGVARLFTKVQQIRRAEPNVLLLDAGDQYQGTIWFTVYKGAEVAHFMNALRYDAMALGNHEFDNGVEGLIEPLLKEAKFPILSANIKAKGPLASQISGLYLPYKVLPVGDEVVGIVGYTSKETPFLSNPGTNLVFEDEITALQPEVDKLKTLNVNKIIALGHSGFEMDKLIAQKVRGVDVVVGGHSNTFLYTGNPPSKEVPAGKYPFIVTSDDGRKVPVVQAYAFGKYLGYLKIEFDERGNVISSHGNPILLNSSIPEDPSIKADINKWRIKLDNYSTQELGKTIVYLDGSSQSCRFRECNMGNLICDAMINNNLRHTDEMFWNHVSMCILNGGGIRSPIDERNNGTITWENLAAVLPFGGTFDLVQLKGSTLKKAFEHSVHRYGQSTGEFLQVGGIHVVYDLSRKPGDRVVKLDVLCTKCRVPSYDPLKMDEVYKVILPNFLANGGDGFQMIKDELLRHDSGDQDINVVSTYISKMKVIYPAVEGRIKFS
Kind of assay: flow cytometry, human tumor cell lines. How it is done: Titration binding curves were produced with CD73 antibodies on Calu6 (CD73 endogenous expressors; human pulmonary adenocarcinoma cell line), DMS114 (CD73 negative; human small cell lung cancer cell line), CHO-cynoCD73 (cynoCD73-transfected) and CHO-K1 (cynoCD73 negative), cells using Alexa Fluor® 647 Goat Anti-Human IgG (H+L) as a secondary antibody, Invitrogen Cat#A-21445, using the following method: 100000 cells were plated in 100 uL PBS+2% FBS per well and blocked for 20 min. Using a U-bottom 96-deep well plate, volumes of antibody and PBS+2% FBS were combined as dictated by Table 12 below.
An 8-point serial dilution was performed by diluting a sixth of the volume (90 uL) into 450 μL PBS+2% FBS. The cell plate was spun down for 5 minutes at 1500 rpm. 100 uL of diluted antibody was added per well of the plate. 100 uL PBS+2% FBS were added to all other wells. […] The plates were spun down at 1500 rpm for 5 min and washed in 200 uL PBS +2% FBS per well. The plates were washed again, resuspended in 200 uL 2% FBS in PBS per well and the samples were run.

B1: CD73.4-IgG2-C219S-IgG1.1f (antibody)
heavy: QVQLVESGGGVVQPGRSLRLSCAASGFTFSNYGMHWVRQAPGKGLEWVAVILYDGSNKYYPDSVKGRFTISRDNSKNTLYLQMNSLRAEDTAVYYCARGGSSWYPDSFDIWGQGTMVTVSSASTKGPSVFPLAPCSRSTSESTAALGCLVKDYFPEPVTVSWNSGALTSGVHTFPAVLQSSGLYSLSSVVTVPSSNFGTQTYTCNVDHKPSNTKVDKTVERKSCVECPPCPAPPVAGPSVFLFPPKPKDTLMISRTPEVTCVVVDVSHEDPEVKFNWYVDGVEVHNAKTKPREEQYNSTYRVVSVLTVLHQDWLNGKEYKCKVSNKALPSSIEKTISKAKGQPREPQVYTLPPSREEMTKNQVSLTCLVKGFYPSDIAVEWESNGQPENNYKTTPPVLDSDGSFFLYSKLTVDKSRWQQGNVFSCSVMHEALHNHYTQKSLSLSPG
light: not shown
modifications: 94% of the N-terminal glutamine was pyro-Q; 97% of the heavy chains lacked the C-terminal lysine
notes: also called CD73.4-IgG2CS-IgG1.1f
With B1, the EC50 was 0.5 nM and 0.3 nM to 0.67 nM (2×).
